Consider 23 molecules from patent US20180066015A1, “INHIBITORS OF GROWTH FACTOR ACTIVATION ENZYMES” (Washington University, published 2018).

Test [1] concerns the target Hepatocyte Growth Factor Activator (HGFA) serine protease domain, N-terminal His-tag, recombinant (Homo sapiens (Human)) (UniProt Q04756).
The target of test [2] is Factor Xa. As to the kind of experiment: selectivity inhibition assay.
The target in test [3] is Trypsin. In words: selectivity inhibition assay.
The target in test [4] is recombinant thrombin. In words: selectivity inhibition assay.
For test [5], the target named is Hepatocyte Growth Factor Activator (HGFA) serine protease domain, N-terminal His-tag, recombinant (Homo sapiens (Human)) (UniProt Q04756). As to the kind of experiment: fluorogenic inhibition assay.
The target of test [6] is T1, matriptase (Charles Craik, UCSF), recombinant (Homo sapiens (Human), UniProt Q9Y5Y6).
T1 sequence: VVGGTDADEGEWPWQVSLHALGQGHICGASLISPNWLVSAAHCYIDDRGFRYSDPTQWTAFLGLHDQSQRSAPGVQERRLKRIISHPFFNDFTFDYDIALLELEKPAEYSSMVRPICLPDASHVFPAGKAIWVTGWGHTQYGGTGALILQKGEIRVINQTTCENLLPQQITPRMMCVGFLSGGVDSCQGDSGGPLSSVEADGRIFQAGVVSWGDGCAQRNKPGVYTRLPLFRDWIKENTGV
As to the kind of experiment: fluorogenic inhibition assay. As for the experimental part:
(§1) Inhibitors (11-pt serial dilutions, 0-20 μM final concentration in reaction) were serially diluted in DMSO (2% DMSO final concentration) and then mixed with either recombinant serine protease domain of HGFA [Z. Han, P. K. Harris, D. E. Jones, R. Chugani, T. Kim, M. Agarwal, W. Shen, S. A. Wildman, J. W. Janetka, Acs Med Chem Lett 2014, 5, 1219-1224], matriptase (Charles Craik, UCSF) or hepsin* (#4776-SE-010, R&D Systems, Minneapolis, Minn.) in black 384 well plates (Corning #3575. Corning, N.Y.). […] The final substrate concentrations for all assays were at the Kₘ for the respective enzymes. Changes in fluorescence (excitation at 380 nm and emission at 460 nm) were measured at room temperature over time in a Biotek Synergy 2 plate reader (Winnoski, Vt.). Using GraphPad Prism version 6.04 software program, (GraphPad Software, San Diego, Calif., www.graphpad.com), a four parameter curve fit was used to determine the inhibitor IC₅₀s from a plot of the mean reaction velocity versus the inhibitor concentration. The IC₅₀ values represent the average of three separate experimental determinations.
(§2) Fluorescent inhibitor and chromogenic proteolytic assays were performed in general accordance with the procedures described in Example 4 for compounds prepared in Examples 5 and 6.

The target of test [7] is Recombinant human hepsin (4776-SE-010, R&D Systems), activated (human, UniProt P05981). In words: fluorogenic inhibition assay. The method, then:
as §1, §2

Starred links: 1 amine or outer side, 2 acyl side, 3 side chain; linkers in the order of their positions; H or OH if unused. No end group written: not given here. *: point of attachment. kbt‑6‑CONH‑4‑piperidine = ketobenzothiazole-6-CONH-4-piperidine (Kbt-4-piperidinylamide), O=C(NC1CCNCC1)c1ccc2nc(*)sc2c1; kbt‑6‑CONH‑4‑pyridine = ketobenzothiazole-6-CONH-4-pyridine (Kbt-4-pyridinylamide), O=C(Nc1ccncc1)c1ccc2nc(*)sc2c1; kbt‑6‑CONH‑Bn = ketobenzothiazole-6-CONH-benzyl (Kbt-benzylamide), O=C(NCc1ccccc1)c1ccc2nc(*)sc2c1; Kbt‑6‑CONH = ketobenzothiazole-6-CONH (amide link to Val), O=C(c1ccc2nc([*:1])sc2c1)[*:2]; kbt‑6‑COOH = ketobenzothiazole-6-COOH, O=C(O)c1ccc2nc(*)sc2c1; kbt = C-terminal ketobenzothiazole, c1ccc2sc(*)nc2c1; Kbt = ketobenzothiazole, c1ccc2sc(*)nc2c1; Fmoc = O=C(OCC1c2ccccc2-c2ccccc21)*

For H-KQLdR-kt (peptide), in test [1], the IC50 of enzyme inhibition worked out at 11300 nM.

B1: Fmoc-LR-kbt (peptide)
peptide: Fmoc-Leu-Arg-kbt
Regarding B1, the Ki in test [2] is 410 nM; in test [3], 19.8 nM; in test [4], 995 nM; in test [5] it was 450 nM; in test [6], 425 nM; in test [7], 115 nM.

B2: Ac-KRLR(SEQ ID NO: 8)-Kbt-Val-NH2 (peptide)
peptide: Ac-KRLR-{Kbt‑6‑CONH-Val-NH2}
Take B2: the Ki in test [2] amounted to 17 nM; in test [4] it was 1560 nM; in test [5], 5.83 nM; in test [6] it was 7.42 nM; in test [7], 0.227 nM.

B3: Ac-SKLR(SEQ ID NO: 10)-Kbt (peptide)
peptide: Ac-SKLR-kbt
SMILES: CC(=O)N[C@@H](CO)C(=O)N[C@@H](CCCCN)C(=O)N[C@@H](CC(C)C)C(=O)N[C@@H](CCCNC(=N)N)C(=O)c1nc2ccccc2s1
For B3, the Ki in test [2] is 1900 nM; in test [3], 0.16 nM; in test [4] it was above 20000 nM; in test [5], 33 nM; in test [6], 3.05 nM; in test [7], 0.16 nM.

B4: Ac-SKLR(SEQ ID NO: 10)-Kbt-4-piperidinylamide (peptide)
peptide: Ac-SKLR-{kbt‑6‑CONH‑4‑piperidine}
For B4, the Ki in test [2] worked out at 447 nM; in test [3], 0.41 nM; in test [4] it was 2950 nM; in test [5] it was 7.7 nM; in test [6], 1.28 nM; in test [7] it was 0.2 nM.

B5: Ac-FLFR(SEQ ID NO: 19)-Kbt (peptide)
peptide: Ac-FLFR-Kbt
SMILES: CC(=O)N[C@@H](Cc1ccccc1)C(=O)N[C@@H](CC(C)C)C(=O)N[C@@H](Cc1ccccc1)C(=O)N[C@@H](CCCNC(=N)N)C(=O)c1nc2ccccc2s1
Consider B5, for which the Ki is 13.1 nM in test [2]; 0.27 nM in test [3]; above 20000 nM in test [4]; 114 nM in test [5]; 3.6 nM in test [6]; 1.44 nM in test [7].

B6: Ac-SKLR(SEQ ID NO: 10)-Kbt-benzylamide (peptide)
peptide: Ac-SKLR-{kbt‑6‑CONH‑Bn}
Consider B6, for which the Ki in test [2] is 190 nM; in test [3], 0.05 nM; in test [4] it was 2470 nM; in test [5], 9.1 nM; in test [6], 0.36 nM; in test [7] it was 0.8 nM.

B7: Ac-SKLR(SEQ ID NO: 10)-Kbt-Val-NH2 (peptide)
peptide: Ac-SKLR-{kbt‑6‑CO-Val-NH2}
With B7, the Ki was 385 nM in test [2]; 0.34 nM in test [3]; 4500 nM in test [4]; 13 nM in test [5]; 10.3 nM in test [6]; 0.19 nM in test [7].

B8: Ac-WLFR(SEQ ID NO: 20)-Kbt (peptide)
peptide: Ac-WLFR-kbt
SMILES: CC(=O)N[C@@H](Cc1c[nH]c2ccccc12)C(=O)N[C@@H](CC(C)C)C(=O)N[C@@H](Cc1ccccc1)C(=O)N[C@@H](CCCNC(=N)N)C(=O)c1nc2ccccc2s1
B8: the inhibition constant (Ki) in test [2] was 1 nM; in test [4], above 20000 nM; in test [5] it was 133 nM; in test [6] it was 5.96 nM; in test [7] it was 0.347 nM.

B9: Ac-SKLR(SEQ ID NO: 10)-Kbt-Trp-NH2 (peptide)
peptide: Ac-SKLR
modifications: not fully specified (C-terminus)
In the case of B9, the Ki came out at 163 nM in test [2]; 0.02 nM in test [3]; 1230 nM in test [4]; 15.8 nM in test [5]; 3.74 nM in test [6]; 0.098 nM in test [7].

B10: H-WLR-kbt-Val-NH2 (peptide)
peptide: H-Trp-Leu-Arg-{kbt-Val-NH2}
B10: the Ki in test [2] was found to be 159 nM; in test [3], 0.01 nM; in test [4], 41 nM; in test [5] it was 73.9 nM; in test [6], 49.2 nM; in test [7], 1.31 nM.

B11: H-RLR-kbt-Val-NH2 (peptide)
peptide: H-Arg-Leu-Arg-{kbt-Val-NH2}
With B11, the Ki in test [2] was 18 nM; in test [3] it was 0.31 nM; in test [4], 548 nM; in test [5], 12.5 nM; in test [6], 4.2 nM; in test [7], 0.44 nM.

B12: H-WLR-kbt (peptide)
peptide: H-Trp-Leu-Arg-kbt
In the case of B12, the Ki turned out to be 532 nM in test [2]; 0.05 nM in test [3]; 457 nM in test [4]; 104 nM in test [5]; 1.52 nM in test [7].

B13: Ac-KRLR(SEQ ID NO: 8)-Kbt (peptide)
peptide: Ac-KRLR-Kbt
SMILES: CC(=O)N[C@@H](CCCCN)C(=O)N[C@@H](CCCNC(=N)N)C(=O)N[C@@H](CC(C)C)C(=O)N[C@@H](CCCNC(=N)N)C(=O)c1nc2ccccc2s1
For the molecule B13, the Ki is 91.9 nM in test [2]; 0.82 nM in test [3]; above 20000 nM in test [4]; 6 nM in test [5]; 0.54 nM in test [6]; 0.112 nM in test [7].

B14: Fmoc-FR-kbt (peptide)
peptide: Fmoc-Phe-Arg-kbt
Consider B14, for which the Ki in test [2] is 28.4 nM; in test [3] it was 14.3 nM; in test [4] it was above 2000 nM; in test [5], 964 nM; in test [6] it was 1280 nM; in test [7], 778 nM.

B15: Ac-SKLR(SEQ ID NO: 10)-Kbt-4-pyridinylamide (peptide)
peptide: Ac-SKLR-{kbt‑6‑CONH‑4‑pyridine}
Consider B15, for which the Ki in test [2] came to 221 nM; in test [3], 1.06 nM; in test [4], 3430 nM; in test [5], 31.8 nM; in test [6] it was 3.95 nM; in test [7] it was 0.14 nM.

B16: Ac-SKLR(SEQ ID NO: 10)-Kbt-COOH (peptide)
peptide: Ac-SKLR-{kbt‑6‑COOH}
SMILES: CC(=O)N[C@@H](CO)C(=O)N[C@@H](CCCCN)C(=O)N[C@@H](CC(C)C)C(=O)N[C@@H](CCCNC(=N)N)C(=O)c1nc2ccc(C(=O)O)cc2s1
As to B16, the Ki in test [2] was 1250 nM; in test [3], 0.03 nM; in test [4], above 2000 nM; in test [5], 132 nM; in test [6], 54.8 nM; in test [7], 0.173 nM.

B17: Ac-SKLR(SEQ ID NO: 10)-Kbt-Phe-NH2 (peptide)
peptide: Ac-SKLR
modifications: not fully specified (C-terminus)
With B17, the Ki was found to be 544 nM in test [2]; 0.27 nM in test [3]; 3640 nM in test [4]; 17.3 nM in test [5]; 6.26 nM in test [6]; 0.14 nM in test [7].

B18: H-LLR-kbt-Val-NH2 (peptide)
peptide: H-Leu-Leu-Arg-{kbt-Val-NH2}
For B18, the Ki in test [2] was determined as 159 nM; in test [3] it was 0.61 nM; in test [4] it was 101 nM; in test [5], 82.1 nM; in test [7], 0.88 nM.

B19: Ac-KRLR(SEQ ID NO: 8)-Kbt-5-COOH (peptide)
peptide: Ac-KRLR-Kbt
modifications: not fully specified
In the case of B19, the Ki stood at 20.2 nM in test [2]; 1.06 nM in test [3]; 1940 nM in test [4]; 6.07 nM in test [5]; 5.14 nM in test [6]; 0.37 nM in test [7].

B20: H-RLR-kbt (peptide)
peptide: H-Arg-Leu-Arg-kbt
Take B20: the Ki in test [2] is 56 nM; in test [3], 0.13 nM; in test [4], 8200 nM; in test [5], 83.1 nM; in test [7], 0.5 nM.

B21: Ac-KRLR(SEQ ID NO: 8)-kbt-Benzyl-3-COOH (peptide)
peptide: Ac-KRLR
modifications: not fully specified (C-terminus); also: benzyl COOH at 3 or 4 (tables differ)
As for B21, the Ki in test [4] was determined as 1620 nM; in test [5] it was 3.33 nM; in test [6], 3.6 nM; in test [7], 0.3 nM.

B22: H-WRLR(SEQ ID NO: 9)-Kbt (peptide)
peptide: H-WRLR-kbt
SMILES: CC(C)C[C@H](NC(=O)[C@H](CCCNC(=N)N)NC(=O)[C@@H](N)Cc1c[nH]c2ccccc12)C(=O)N[C@@H](CCCNC(=N)N)C(=O)c1nc2ccccc2s1
With B22, the Ki in test [2] amounted to 2.4 nM; in test [3] it was 0.96 nM; in test [4] it was 4890 nM; in test [5] it was 8.75 nM; in test [6], 3.79 nM; in test [7], 0.12 nM.
